According to the Immune Epitope Database (IEDB):

How the values were obtained:
[1] = target: HLA-B*07:02; test: IEDB peptide-MHC binding, purified MHC/competitive/fluorescence; ≥ and ≤ were set here for values at or beyond the usual limits of such assays; settings: source organism: Zaire ebolavirus
[2] = target: HLA-B*15:01; test: as above; settings: source organism: Zaire ebolavirus
[3] = target: HLA-A*24:02; test: as above; settings: source organism: Zaire ebolavirus
[4] = target: HLA-A*02:01; test: as above; settings: source organism: Zaire ebolavirus
[5] = target: HLA-A*11:01; test: as above; settings: source organism: Zaire ebolavirus
[6] = target: HLA-A*02:12; test: IEDB peptide-MHC binding, purified MHC/direct/fluorescence; filed as Kd, often an IC50 or EC50 that approximates it; ≥ and ≤ were set here for values at or beyond the usual limits of such assays; settings: source organism: Francisella tularensis subsp. tularensis FSC033
[7] = target: HLA-C*08:02; test: as above
[8] = target: HLA-A*02:11; test: as above; settings: source organism: Francisella tularensis subsp. tularensis FSC033
[9] = target: HLA-C*12:03; test: as above; settings: source organism: Francisella tularensis subsp. tularensis WY96-3418
[10] = target: HLA-A*02:19; test: as above; settings: source organism: Francisella tularensis subsp. tularensis FSC033
[11] = target: HLA-A*02:01; test: as above
[12] = target: HLA-C*05:01; test: as above
[13] = target: HLA-B*58:01; test: IEDB peptide-MHC binding, purified MHC/competitive/fluorescence; filed as Kd, often an IC50 or EC50 that approximates it; ≥ and ≤ were set here for values at or beyond the usual limits of such assays; settings: source organism: Yersinia pestis Nepal516
[14] = target: HLA-B*15:01; test: as above; settings: source organism: Yersinia pestis Nepal516
[15] = target: HLA-B*39:01; test: as above; settings: source organism: Yersinia pestis Nepal516
[16] = target: HLA-B*51:01; test: as above; settings: source organism: Yersinia pestis Nepal516
[17] = target: HLA-A*02:01; test: as above; settings: source organism: Yersinia pestis Nepal516
[18] = target: HLA-B*18:01; test: IEDB peptide-MHC binding, purified MHC/direct/fluorescence; filed as Kd, often an IC50 or EC50 that approximates it; ≥ and ≤ were set here for values at or beyond the usual limits of such assays; settings: source organism: Mycobacterium tuberculosis
[19] = target: HLA-A*31:01; test: as above
[20] = target: HLA-B*48:01; test: as above
[21] = target: HLA-B*08:03; test: as above; settings: source organism: Mycobacterium tuberculosis str. Haarlem
[22] = target: HLA-B*46:01; test: as above
[23] = target: HLA-B*07:02; test: as above
[24] = target: HLA-A*26:01; test: as above; settings: source organism: Mycobacterium tuberculosis str. Haarlem
[25] = target: HLA-B*08:02; test: as above
[26] = target: HLA-B*58:01; test: as above
[27] = target: HLA-B*15:01; test: as above
[28] = target: HLA-B*40:01; test: as above; settings: source organism: Mycobacterium tuberculosis
[29] = target: HLA-B*57:01; test: as above
[30] = target: HLA-B*08:01; test: as above
[31] = target: HLA-A*68:02; test: as above
[32] = target: HLA-A*26:03; test: as above; settings: source organism: Mycobacterium tuberculosis str. Haarlem
[33] = target: HLA-B*15:17; test: as above
[34] = target: HLA-B*27:05; test: as above
[35] = target: HLA-A*01:01; test: as above
[36] = target: HLA-A*11:01; test: as above
[37] = target: HLA-A*26:02; test: as above
[38] = target: HLA-A*69:01; test: as above
[39] = target: HLA-B*15:09; test: as above
[40] = target: HLA-B*15:02; test: as above
[41] = target: HLA-A*03:01; test: as above; settings: source organism: Brucella abortus
[42] = target: HLA-C*03:03; test: as above; settings: source organism: Mycobacterium tuberculosis C
[43] = target: HLA-A*30:01; test: IEDB peptide-MHC binding, purified MHC/competitive/fluorescence; filed as Kd, often an IC50 or EC50 that approximates it; ≥ and ≤ were set here for values at or beyond the usual limits of such assays; settings: source organism: Francisella tularensis subsp. tularensis FSC198
[44] = target: HLA-A*02:03; test: as above; settings: source organism: Francisella tularensis subsp. tularensis FSC198
[45] = target: HLA-B*35:01; test: as above; settings: source organism: Francisella tularensis subsp. tularensis FSC198
[46] = target: HLA-B*15:17; test: as above; settings: source organism: Francisella tularensis subsp. tularensis FSC198
[47] = target: HLA-A*26:02; test: as above; settings: source organism: Francisella tularensis subsp. tularensis FSC198
[48] = source organism: Francisella tularensis subsp. holarctica LVS
[49] = source organism: Yersinia pestis Nepal516
[50] = source organism: Mycobacterium tuberculosis
[51] = source organism: Mycobacterium tuberculosis str. Haarlem
[52] = source organism: Brucella abortus
[53] = source organism: Brucella suis 1330
[54] = source organism: Mycobacterium tuberculosis C
[55] = source organism: Francisella tularensis subsp. tularensis FSC033

RTNFLIKFL
IC50 [1]: ≥ 275 µM | IC50 [2]: ≥ 725 µM | IC50 [3]: 10.2 µM | IC50 [4]: ≥ 165 µM | IC50 [5]: ≥ 589 µM

YLYPWSLGL
Kd [6]: 0.002 µM | Kd ([7]; source organism: Francisella tularensis subsp. tularensis WY96-3418): ≥ 20 µM | Kd [8]: ≤ 0.001 µM | Kd [9]: 0.004 µM | Kd [10]: 0.012 µM | Kd [11, 48]: ≤ 0.001 µM

FSYNVAYAI
Kd [12, 49]: 4.96 µM | Kd [7, 49]: 0.182 µM | Kd [13]: 0.0363 µM | Kd [14]: ≥ 20 µM | Kd [15]: 0.469 µM | Kd [16]: 2.27 µM | Kd [17]: 0.0296 µM

SPQNHSETA
IC50 [1]: 45.2 µM

KYFVRSTEK
Kd [18]: ≥ 20 µM | Kd [19, 50]: 0.0021 µM | Kd [20, 50]: ≥ 20 µM | Kd [21]: ≥ 20 µM | Kd [22, 50]: ≥ 20 µM | Kd [23, 50]: ≥ 20 µM | Kd [24]: ≥ 20 µM | Kd [25, 51]: ≥ 20 µM | Kd [26, 50]: ≥ 20 µM | Kd [27, 50]: ≥ 20 µM | Kd [28]: ≥ 20 µM | Kd [29, 50]: ≥ 20 µM | Kd [30, 51]: ≥ 20 µM | Kd [31, 50]: ≥ 20 µM | Kd [32]: ≥ 20 µM | Kd [33, 50]: ≥ 20 µM | Kd [34, 50]: ≥ 20 µM | Kd [11, 50]: ≥ 20 µM | Kd [35, 50]: ≥ 20 µM | Kd [36, 50]: 1.79 µM | Kd [37, 51]: ≥ 20 µM

GLAEKPNDY
Kd [19, 52]: ≥ 20 µM | Kd [20, 52]: ≥ 20 µM | Kd [22, 52]: ≥ 20 µM | Kd [23, 52]: ≥ 20 µM | Kd [25, 53]: ≥ 20 µM | Kd [26, 52]: ≥ 20 µM | Kd [27, 52]: 0.947 µM | Kd [38, 52]: ≥ 20 µM | Kd [29, 52]: ≥ 20 µM | Kd [31, 52]: ≥ 20 µM | Kd [39, 53]: ≥ 20 µM | Kd [33, 52]: ≥ 20 µM | Kd [40, 52]: 2 µM | Kd [34, 52]: ≥ 20 µM | Kd [11, 52]: ≥ 20 µM | Kd [35, 52]: ≥ 20 µM | Kd [41]: ≥ 20 µM | Kd [36, 52]: ≥ 20 µM | Kd [37, 53]: ≥ 20 µM

YLDAIQQPV
Kd [12, 54]: 0.025 µM | Kd [7, 54]: ≤ 0.001 µM | Kd [42]: 0.256 µM

FQVNRFTGY
Kd [19, 48]: ≥ 20 µM | Kd [20, 48]: ≥ 20 µM | Kd [22, 48]: ≥ 20 µM | Kd [23, 48]: ≥ 20 µM | Kd [26, 48]: ≥ 20 µM | Kd [27, 48]: 0.0097 µM | Kd [38, 48]: ≥ 20 µM | Kd [29, 48]: ≥ 20 µM | Kd [30, 55]: ≥ 20 µM | Kd [31, 48]: ≥ 20 µM | Kd [39, 55]: ≥ 20 µM | Kd [40, 55]: 0.008 µM | Kd [34, 48]: 0.632 µM | Kd [11, 48]: ≥ 20 µM | Kd [35, 48]: ≥ 20 µM | Kd [36, 48]: ≥ 20 µM | Kd [43]: ≥ 20 µM | Kd [44]: ≥ 20 µM | Kd [45]: 4.41 µM | Kd [46]: ≥ 20 µM | Kd [47]: 0.113 µM
